Assay results from the supplement of paper PMC9170038.

Test system: MS2 coat protein
Assay: apparent KD of MS2 coat protein; designed switch direction (-1 OFF switch, 1 ON switch): -1; higher = weaker reporter binding
How it was run: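 Transcription of designed RNA switches on Illumina chips was done by stalled E. coli RNA polymerase. SNAP-549-labelled MS2 coat protein was then titrated in doubling steps from 0.7 or 1.5 nM to 3 µM, with steps of 0.8–1.5 h at the lowest and 10–20 min at the highest concentration. The per-design median over clusters of curve-fitted normalised fluorescence is reported as apparent KD.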

[1] = input ligand: microRNA oligo, concentration not stated
[2] = Eterna round: R95, input ligand: FMN 200 uM
[3] = Eterna round: R95, input ligand: microRNA oligo, concentration not stated
[4] = Eterna round: R95, input ligand: none

Sequence | apparent KD of MS2 coat protein (input ligand: FMN 200 uM) | apparent KD of MS2 coat protein (input ligand: none) | apparent KD of MS2 coat protein [1] | apparent KD of MS2 coat protein [2] | apparent KD of MS2 coat protein [3] | apparent KD of MS2 coat protein [4]
UUUCGUGUGCGGGCUUUUUACAUGAGGAUCACCCAUGUCCUCUGCUUGUCUUGUCUUGGGCUUUUUUUGGGUUCGGG [-19.4, -42 kcal, A 8%] (Eterna round: R97, puzzle: Sensor, turn-off variant 1) | 560 nM | 836 nM | – | – | – | –
UUUUACUUAGGAUAUACAUUUUUUUAUUUAUUUAUAAUAUUACAUGAGGAUCACCCAUGUAGAAGGGAGAUUUU [My Design] (Eterna round: R96, puzzle: Exclusion 2) | 76.9 nM | 72.3 nM | 64.3 nM | – | – | –
CGUCUGUCAGGAUAUGGUUACAUAGACAUGAGGAUCACCCAUGUGACGUGGGACUAGUGAUUAGAAGGGACGAACG [EX5 #69] (Eterna round: R97, puzzle: Exclusion 5) | 36.5 nM | 31.7 nM | – | – | – | –
CUUAGCCUAAAAUCACGCAAGCUUUCUGCUUGUCUUAAGACAUGAGGAUCACCCAUGUCCGGGCUGAACUUAUGGAA [Inve] (puzzle: Sensor v3, turn-off variant 2) | – | – | – | 18.8 nM | 22.5 nM | –
AUAUACGGAGGAUAUACUUGAGGAUCACCCAAGUGGAGUCCCGUUUGGGCGGUAAAUAGUAGAAGGCCGACCCA [jl-ex3-4.43 ViennaUCT mod] (Eterna round: R97, puzzle: Exclusion 3) | 14.1 nM | 16.5 nM | – | – | – | –
ACAAACAACAUAGGAUAUCUGCGGGUGUCAGUGCUCAUGGAUCUCCACAUGAGGAUCACCCAUGUAGAGAAGGAUGAACGCUUA [Retionzaan] (Eterna round: R96, puzzle: Exclusion NG 2) | 82.4 nM | 14.1 nM | 8.9 nM | – | – | –
UGGGAACGAGGAUAUCGAUGGUGGAACAUGAGGAUCACCCAUGUAUGAGAUAGUGUAGUUCGAGAAGGCGUUAAGU [JR_E5_Sub053] (puzzle: Exclusion 5) | – | – | – | – | 54 nM | –
ACAAGCGCGAAAGUCUUAUACAUGAGGAUCACCCAUGUUCUCAAGGUCUUAUGUACUGACACGAUUACUCGUCUUAU [AK-miRNA-r3-4] (Eterna round: R97, puzzle: Sensor, turn-off variant 1) | 117 nM | 112 nM | – | – | – | –
GAAAAGCUAGGAUAUACGAAAAAAAAGGGUAGAAAAAAAACACAUGAGGAUCACCCAUGUAGAAGGAGCAAAAG [salish99_ex2_r3_093] (puzzle: Exclusion 2) | – | – | – | 102 nM | 51 nM | 48.2 nM
GUUGUGUGAGGAUAUGCCUGGCCGUGAGGCCGGAUUGGGUGGCAGAAGGUACAUGAGGAUCACCCAUGUACGGG [salish99_ex4_4_007] (Eterna round: R97, puzzle: Exclusion 4) | 45.4 nM | 30.9 nM | – | – | – | –
UACAUGAGGAUCACCCAUGUUUUGUCGUGUAUGGUAUUUAUCUAGGAUAUCAUUAUAUUUAUUUAUGAGAAGGAGAAUAUUAAU [JMF's solution 97] (Eterna round: R96, puzzle: Exclusion NG 3) | 29.9 nM | 27.6 nM | 21.9 nM | – | – | –
AUGAGGUUAGGAUAUACAUGAGGAUCACCCAUGUUGAAAGGUUAGAUAGGAGAAGAUAGUAGAAGGAACAAAGA [JR_Exclu3_Sub053] (puzzle: Exclusion 3) | – | – | – | 31.8 nM | 37.2 nM | 43.1 nM
AACUAGUGAGGAUAUACAUGAGGAUCACCCAUGUACGUCGUGGGUAGAAAACAAGUCAGUAGAAGGUGCUAGAC [Ininor] (puzzle: Exclusion 3) | – | – | – | – | 174 nM | –
GAAUAGAGAGGAUAUGCGUAGUAGGUAGUAAGAUAUAUAUGACAUGAGGAUCACCCAUGUAGAAGGCUCAGAUA [EX2 #2] (Eterna round: R97, puzzle: Exclusion 2) | 38.3 nM | 35.8 nM | – | – | – | –
UAUUAGCAAGCGAGAUCCGACAUGAGGAUCACCCAUGUGCUCGUCUUAUAAGGGAGGGAGGGAAAACCCUCCCUCCC [Elimod 9 - Jieux - Sensor, turn-off variant 1] (Eterna round: R97, puzzle: Sensor, turn-off variant 1) | 19.5 nM | 21.2 nM | – | – | – | –
AAUUCUAGGGUCAGACGCACAAGCUUUUUGCUCGUUUUAACAUGAGGAUCACCCAUGUCUAGUGGAUCUGAUCGGGC [JL ViennaUCT Isreen mod 8] (Eterna round: R96, puzzle: Sensor v3, turn-off variant 2) | 25.3 nM | 33.3 nM | 58.1 nM | – | – | –
GUCAGCUCGUGAGGAUAUACAUGAGGAUCACCCAUGUGGUCAAUAGCAGCUUCGGCUGCAUACAUGUAGAAGGCACGAGCUGAC [ENG2/7-A1] (Eterna round: R96, puzzle: Exclusion NG 2) | 59.7 nM | 30.7 nM | 9.59 nM | – | – | –
CAGAACAGAGGAUAUACAUGAGGAUCACCCAUGUGUUCCAGCUAGGAGACUAGCAUAUGUAGAAGGCUGUUCUG [Mat - Exclusion 3 - JL Mod - D12] (Eterna round: R97, puzzle: Exclusion 3) | 87.7 nM | 161 nM | – | – | – | –
UUUUAAUAUGAAGGAUAUACUUAACAUGAGGAUCACCCAUGUGGUGUUGUGAGUGAGUGAGUUUAGUAGAAGGUCAAUGAUUUU [JMF's solution 69] (Eterna round: R96, puzzle: Exclusion NG 2) | 638 nM | 252 nM | 381 nM | – | – | –
GGUUGGCGAGGAUAUACAUGAGGAUCACCCAUGUGAGAGAAAAAAGUGAGCAAGAAAAGUAGAAGGCGCUGACG [salish99_ex3_r3_030] (puzzle: Exclusion 3) | – | – | – | 627 nM | 75.7 nM | 27.5 nM
AGUAGUAGUAUCCGAUCCUACAUGAGGAUCACCCAUGUAGCUAGACGUGCACGCGAUGCUCGUCGGACUACCAGAUG [salish99_TOv1_r3_043] (puzzle: Sensor v3, turn-off variant 1) | – | – | – | 48 nM | 46.9 nM | 63.4 nM
UUCCUACAUGAGGAUCACCCAUGUCAGGAUAUCUCCUCACCGCGAAUGGGCAGUGAAUAGAGAAGGGACAGGAA [Aner] (puzzle: Exclusion 1) | – | – | – | – | 13.5 nM | –
AUAAUACAUGAGGAUCACCCAUGUGAGGAUAUGAGCCUACAUUCACGCAGAGAGAAGGUCAGAAGGCACUUGGU [Eternabot (L2) Solution 65] (Eterna round: R97, puzzle: Exclusion 1) | 211 nM | 63.3 nM | – | – | – | –
AUAACCGAAGGAUAUAGUCGUGAGGACAUGAGGAUCACCCAUGUGUUUCAGAUAGUCCCACUAGAAGGUCGGCGUC [Eternabot (L2) Solution 29] (Eterna round: R97, puzzle: Exclusion 5) | 110 nM | 67.2 nM | – | – | – | –
GAUUAUGCGAGCUUUAGGGACAUGAGGAUCACCCAUGUUCGUCUUAUUGAUCUGGAUGCGCUAACAUACCUAAAUCU [JMF 45] (puzzle: Sensor v3, turn-off variant 1) | – | – | – | 65 nM | 71.1 nM | 62.9 nM
